Data on five molecules can be found in US20260201008A1, “SECRETIN-DERIVED GLP1R SELECTIVE AGONISTS” (GUBRA A/S, priority 2023, published 2026).

Numbered stars: 1 amine (or outer) side, 2 acyl side, 3 side chain; on linkers, the order of the positions; unused ones are H or OH. Square brackets hold non-standard residues; d marks the D form. Side chains are listed from the residue outwards. Ends that are not written are not given here. * marks the point of attachment. C20 diacid = O=C(O)CCCCCCCCCCCCCCCCCCC(=O)*; γGlu = O=C(O)[C@H](CCC(=O)[*:2])N[*:1]; AEEA = NCCOCCOCC(=O)O; Aib = CC(C)(N)C(=O)O

Experiment [1] has as its target human GLP-1 receptor (hGLP1R) (human, UniProt P43220 24-463). In words: cell-based or functional assay.
Experiment [2] has as its target human secretin receptor (hSCTR) (human, UniProt P47872 23-440). Nature of the experiment: cell-based or functional assay.

Sequence of human secretin receptor (hSCTR) (P47872 23-440): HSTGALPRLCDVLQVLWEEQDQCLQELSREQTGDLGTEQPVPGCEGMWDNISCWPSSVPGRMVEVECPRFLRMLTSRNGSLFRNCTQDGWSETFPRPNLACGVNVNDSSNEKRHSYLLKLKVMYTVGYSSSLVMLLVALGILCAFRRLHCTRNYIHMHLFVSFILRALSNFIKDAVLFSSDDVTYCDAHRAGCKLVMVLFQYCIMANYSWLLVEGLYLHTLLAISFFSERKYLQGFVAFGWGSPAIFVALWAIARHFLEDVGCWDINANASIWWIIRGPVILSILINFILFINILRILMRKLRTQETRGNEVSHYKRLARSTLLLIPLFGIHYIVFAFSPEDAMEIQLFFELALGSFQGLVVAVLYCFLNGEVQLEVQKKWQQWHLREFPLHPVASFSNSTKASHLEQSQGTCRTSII

B1: SEQ ID NO: 187 (peptide)
peptide: H[Aib]EGTFTSDWSGLLEGAALQRFIQWLV-NH2
modifications: N-terminus assumed
SMILES: CC[C@H](C)[C@H](NC(=O)[C@H](Cc1ccccc1)NC(=O)[C@H](CCCNC(=N)N)NC(=O)[C@H](CCC(N)=O)NC(=O)[C@H](CC(C)C)NC(=O)[C@H](C)NC(=O)[C@H](C)NC(=O)CNC(=O)[C@H](CCC(=O)O)NC(=O)[C@H](CC(C)C)NC(=O)[C@H](CC(C)C)NC(=O)CNC(=O)[C@H](CO)NC(=O)[C@H](Cc1c[nH]c2ccccc12)NC(=O)[C@H](CC(=O)O)NC(=O)[C@H](CO)NC(=O)[C@@H](NC(=O)[C@H](Cc1ccccc1)NC(=O)[C@@H](NC(=O)CNC(=O)[C@H](CCC(=O)O)NC(=O)C(C)(C)NC(=O)[C@@H](N)Cc1c[nH]cn1)[C@@H](C)O)[C@@H](C)O)C(=O)N[C@@H](CCC(N)=O)C(=O)N[C@@H](Cc1c[nH]c2ccccc12)C(=O)N[C@@H](CC(C)C)C(=O)N[C@H](C(N)=O)C(C)C
Turning to B1, the “pEC50 hGLPR1” value in experiment [1] is 10.4 -log M. Moreover, the “pEC50 hSCTR” value in experiment [2] is 7.3 -log M.
As to H[Aib]EGTFTSDWSYLK([AEEA-AEEA-γGlu-C20 diacid])EEA[Aib]LQRFLEHLV-NH2 [SEQ ID NO: 185], the “pEC50 hGLPR1” value in experiment [1] was 11.2 -log M. In addition, the “pEC50 hSCTR” value in experiment [2] is 7.3 -log M.

B2: SEQ ID NO: 188 (peptide)
peptide: H[Aib]EGTFTSDWSVLLEGAALQRFIQWLV-NH2
modifications: N-terminus assumed
SMILES: CC[C@H](C)[C@H](NC(=O)[C@H](Cc1ccccc1)NC(=O)[C@H](CCCNC(=N)N)NC(=O)[C@H](CCC(N)=O)NC(=O)[C@H](CC(C)C)NC(=O)[C@H](C)NC(=O)[C@H](C)NC(=O)CNC(=O)[C@H](CCC(=O)O)NC(=O)[C@H](CC(C)C)NC(=O)[C@H](CC(C)C)NC(=O)[C@@H](NC(=O)[C@H](CO)NC(=O)[C@H](Cc1c[nH]c2ccccc12)NC(=O)[C@H](CC(=O)O)NC(=O)[C@H](CO)NC(=O)[C@@H](NC(=O)[C@H](Cc1ccccc1)NC(=O)[C@@H](NC(=O)CNC(=O)[C@H](CCC(=O)O)NC(=O)C(C)(C)NC(=O)[C@@H](N)Cc1c[nH]cn1)[C@@H](C)O)[C@@H](C)O)C(C)C)C(=O)N[C@@H](CCC(N)=O)C(=O)N[C@@H](Cc1c[nH]c2ccccc12)C(=O)N[C@@H](CC(C)C)C(=O)N[C@H](C(N)=O)C(C)C
As to B2, the “pEC50 hGLPR1” value in experiment [1] was 10.1 -log M. The “pEC50 hSCTR” value in experiment [2] is 7.5 -log M.

B3: SEQ ID NO: 184 (peptide)
peptide: H[Aib]EGTFTSDVSVLLEGAALQRFIQWLV-NH2
modifications: N-terminus assumed
SMILES: CC[C@H](C)[C@H](NC(=O)[C@H](Cc1ccccc1)NC(=O)[C@H](CCCNC(=N)N)NC(=O)[C@H](CCC(N)=O)NC(=O)[C@H](CC(C)C)NC(=O)[C@H](C)NC(=O)[C@H](C)NC(=O)CNC(=O)[C@H](CCC(=O)O)NC(=O)[C@H](CC(C)C)NC(=O)[C@H](CC(C)C)NC(=O)[C@@H](NC(=O)[C@H](CO)NC(=O)[C@@H](NC(=O)[C@H](CC(=O)O)NC(=O)[C@H](CO)NC(=O)[C@@H](NC(=O)[C@H](Cc1ccccc1)NC(=O)[C@@H](NC(=O)CNC(=O)[C@H](CCC(=O)O)NC(=O)C(C)(C)NC(=O)[C@@H](N)Cc1c[nH]cn1)[C@@H](C)O)[C@@H](C)O)C(C)C)C(C)C)C(=O)N[C@@H](CCC(N)=O)C(=O)N[C@@H](Cc1c[nH]c2ccccc12)C(=O)N[C@@H](CC(C)C)C(=O)N[C@H](C(N)=O)C(C)C
Consider B3, for which the “pEC50 hGLPR1” value in experiment [1] was 10.6 -log M. In addition, the “pEC50 hSCTR” value in experiment [2] is 6.6 -log M.
The matching figures for H[Aib]EGTFTSDVSRLK([AEEA-AEEA-γGlu-C20 diacid])ELAASQRFLEHLV-NH2 [SEQ ID NO: 19]: 10.1 -log M and 6.2 -log M.
